The results in this text go back to article PMC7897482, “Ecd promotes U5 snRNP maturation and Prp8 stability” (Nucleic Acids Research, 2021).

For this experiment, the target named is T1, His::Ecd (Drosophila melanogaster, UniProt Q9W032 1-684).
T1 construct: Ecdysoneless (Ecd), Drosophila melanogaster; cDNA cloned into pET28b; also called His-tagged Ecd; source: E. coli BL21 Rosetta (DE3), purified (Ni Sepharose)
T1 sequence (looked up): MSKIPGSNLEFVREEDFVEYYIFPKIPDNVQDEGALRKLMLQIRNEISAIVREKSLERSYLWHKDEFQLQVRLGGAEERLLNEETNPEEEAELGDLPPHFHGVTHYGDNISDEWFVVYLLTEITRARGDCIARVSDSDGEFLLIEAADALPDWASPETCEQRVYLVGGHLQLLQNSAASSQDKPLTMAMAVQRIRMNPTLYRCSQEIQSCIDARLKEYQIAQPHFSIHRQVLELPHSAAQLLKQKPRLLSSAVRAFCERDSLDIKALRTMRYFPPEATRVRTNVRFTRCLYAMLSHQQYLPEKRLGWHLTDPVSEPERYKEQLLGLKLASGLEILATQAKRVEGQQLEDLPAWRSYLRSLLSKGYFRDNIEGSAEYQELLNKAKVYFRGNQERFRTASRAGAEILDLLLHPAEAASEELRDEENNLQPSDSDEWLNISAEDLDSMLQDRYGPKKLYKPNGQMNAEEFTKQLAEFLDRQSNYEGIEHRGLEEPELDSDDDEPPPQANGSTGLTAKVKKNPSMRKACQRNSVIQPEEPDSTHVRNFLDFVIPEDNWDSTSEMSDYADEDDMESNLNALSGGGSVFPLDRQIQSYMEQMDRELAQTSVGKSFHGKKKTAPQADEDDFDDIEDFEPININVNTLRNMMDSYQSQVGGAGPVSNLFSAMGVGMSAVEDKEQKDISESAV
In words: pull-down; 10 μg of purified His::Ecd and His::SmD3::HA incubated alone or together overnight at 4°C with protein G Dynabeads coupled to rat anti-Ecd N-term antibody; western blot. The settings on record: both partners purified. In general terms: Immunoblotting shows a protein as a band on a membrane.

B1: His::SmD3::HA (natural protein, Drosophila melanogaster, UniProt O44437 1-151, looked up)
chain: MSIGVPIKVLHEAEGHIITCETITGEVYRGKLIEAEDNMNCQMTQITVTYRDGRTANLENVYIRGSKIRFLILPDMLKNAPMFKKQTGKGLGGTAGRGKAAILRAQARGRGRGGPPGGGRGTGGPPGAPGGSGGRGAWQGGPTGGRGRGGL
notes: Sm ring protein SmD3, Drosophila melanogaster; cDNA cloned into Gateway pDEST17; also called His-tagged SmD3; source: E. coli BL21 Rosetta (DE3), purified (Ni Sepharose)
With B1, the binding result was “binds”.
